Test results from patent US20240209061A1, “FUSION PROTEINS AND USES THEREOF” (Pfizer Inc., priority 2020, published 2024).

Columns and labels:
[1] = tested on: B16F10 murine melanoma cells; experiment: B16F10 melanoma model, combination with αPD1 antibody; type: in vivo, mouse; settings: CD80-D90Q-E23C-A26C-Fc 3 mg/kg and/or αPD1 Ab 10 mg/kg
Protocol: B16F10 murine melanoma cells (0.5 million) were subcutaneously implanted in the hind flank of female C57BL/6J mice. When tumors reached ˜100 mm3, mice were randomized and dosed with PBS vehicle control, 3 mg/kg CD80-D90Q-E23C-A26C-Fc, and or 10 mg/kg murine αPD1 antibody. CD80-D90Q-E23C-A26C-Fc was dosed on Days 0 and 3, αPD1 antibody was dosed on Days 0, 3 and 6. Tumor volume was determined by caliper measurements obtained in 2 dimensions and calculated as width^2×length/2. Error bars are depicted as ±SEM

[2] = tested on: CT26 murine colorectal carcinoma tumor cells; experiment: CT26 murine colorectal carcinoma model; type: in vivo, mouse; settings: for Day 10 tumor volume: Days 0 and 3; for % tumor growth inhibition: Day 10
Protocol: CT26 murine colorectal carcinoma tumor cells (1×10^6) were subcutaneously implanted in the hind flank of female Balb/c mice. When tumors reached ˜100 mm3 (Day 8), mice were randomized. PBS vehicle control or variant CD80-Fc fusion proteins were dosed intravenously at 0.1 and 1.0 mg/kg on Days 0 and 3. Tumor volume was determined by caliper measurements obtained in 2 dimensions and calculated as width^2×length/2. Error bars are depicted as ±SEM.
IFNγ ELIspot was used to measure tumor-reactive T cells in the spleen in mice treated with CD80-Fc fusion proteins at a 1 mg/kg dose.
Cytotoxic CD8^+ T cells are responsible for killing cancer cells and the measurement of CD8^+ T cells that have infiltrated tumors commonly correlates with efficacy for immune-oncology therapies. For all in vivo studies, tumors were collected ˜1 week after the first dose and dissociated by mincing, followed by incubation in an enzymatic digestion cocktail and homogenization. The resulting cell suspension was filtered and washed, and single cells were stained with antibodies to CD45, CD8, and a viability dye to detect tumor-infiltrating lymphocytes (TILs) by flow cytometry. Data were acquired on a BD LSRFortessa flow cytometer or a Cytek Aurora spectral flow cytometer. Table 31 and FIG. 18 show the amount of tumor-infiltrating CD8+ T cells expressed as a percentage of total immune cells (CD45+). Each value is the average of n=4 mice per group. Treatment with all variant CD80-Fc fusion proteins led to increase in CD8+ TILs in various tumor models.

[3] = tested on: peripheral blood mononuclear cells (PBMC); experiment: RESTORE cytokine release assay in absence of TCR stimulation; type: cell-based, human; parameters: IFNγ: unit not given beside the values; settings: Table 20
Protocol: The ability of variant CD80-Fc fusion proteins to promote cytokine release in the absence of TCR stimulation was assessed in the RESTORE (RESetting T cells to Original Reactivity) assay (Römer et al, Blood, 2011). Freshly isolated peripheral blood mononuclear cells (PBMC) from whole blood of several healthy donors were cultured for 48 hours at […] within RPMI1640 media supplemented with 10% autologous plasma, 10 mM HEPES, 1× GlutaMAX, 1× PenStrep, beta2-mercaptoethanol, NEAA and sodium pyruvate. Following the 48-hour incubation, PBMC were pelleted and resuspended at a final concentration of 10^6/ml with indicated soluble drug. Treatment was allowed for 48 hours then supernatant was harvested and assessed in IL-2 and IFNγ ELISA according to manufacturer's protocol (BioLegend).
Positive controls included CD28 superagonist anti-CD28 clone TGN1412 as IgG1 and IgG4 isotypes and anti-CD3. […] Values shown are the average of 3 technical replicates. D=Donor.

[4] = Pharmacokinetics in huFcRn transgenic mice; settings: 0.1 mg/kg IV
Protocol: PK of CD80-Fc fusion proteins was also assessed in transgenic mice expressing the human neonatal Fc receptor (huFcRn) a-chain transgene under the control of its natural human promoter. Female mice were dosed intravenously with CD80-Fc fusion proteins at 0.1 mg/kg, and blood was collected at the timepoints indicated on the graph. Levels of CD80-Fc in mouse plasma were measured as described above.

[5] = tested on: human peripheral blood mononuclear cells (PBMCs); experiment: Human PBMC IL-2 production assay with plate-bound anti-CD3; type: cell-based; settings: average of 5 PBMC donors; 1 μg/ml anti-CD3; 48 hours
Protocol: The ability of the variant CD80-Fc fusion proteins to promote IL-2 production in the context of anti-CD3 (to stimulate T cell receptor signaling) in human peripheral blood mononuclear cells (PBMCs) was tested. To bind anti-CD3 antibody on the plate, the anti-human-CD3 (clone HIT3a, BD Pharmingen) was incubated in 96-well plates at 4° C. overnight at 1 μg/ml unless otherwise noted. Human PBMCs were isolated from freshly collected human whole blood using Ficoll-Paque Plus. Human PBMCs (100,000 per well) were incubated with plate-bound anti-CD3 and the indicated concentrations of soluble CD80-Fc fusion protein in RPMI+10% HI-FBS, pen/strep, sodium pyruvate and non-essential amino acids. After 48 hours incubation, supernatants were collected and IL-2 measured by the Quantikine human IL-2 ELISA kit from R&D.
Additional CD80-Fc fusion proteins were tested in the same PBMC assay, at the concentration of anti-human-CD3 (clone HIT3a, BD Pharmingen) noted.

[6] = Thermal forced aggregation (SEC); type: physicochemical; settings: Table 11, 24 hours, PBS
Protocol: To assess the aggregation propensity of variant CD80-Fc fusion proteins, 1 mg/ml of CD80-Fc fusion protein was incubated in PBS at increasing temperatures for 24 hours. The samples were analyzed by SEC on an Agilent 1100 (Agilent Technologies, Germany) HPLC system using a YMC-Pack Diol-200 (YMC, Germany) analytical size exclusion chromatography column and PBS supplemented to 400 mM NaCl as running buffer. % aggregation was calculated from the loss of intact peak area. […] ND=Not Determined.

Substance: CD80-D90Q-E23C-A26C-Fc: disulfide stabilized variant CD80-Fc fusion protein (D90Q, E23C, A26C)
- Day 10 tumor volume [1]: 1208.8 mm^3
- % tumor growth inhibition ([1]; Day 10): 26.3%
- Number of tumor regressions ([2]; 0.1 mg/kg): 2/10
- Day 10 tumor volume ([2]; 0.1 mg/kg IV): 388.9 mm^3
- % tumor growth inhibition ([2]; 0.1 mg/kg): 67.53%
- Number of tumor regressions ([2]; 1 mg/kg): 9/10
- Day 10 tumor volume ([2]; 1 mg/kg IV): 197.8 mm^3
- % tumor growth inhibition ([2]; 1 mg/kg): 83.49%
- # IFNγ-producing spots (tumor-reactive T cells in spleen) ([2]; 1 mg/kg, average of n = 4 mice): 523.1875
- IFNγ ([3]; D222, 1 μg/ml): 4.0
- IL-2 ([3]; D222, 1 μg/ml): 7.0
- IFNγ ([3]; D222, 10 μg/ml): 4.7
- IL-2 ([3]; D222, 10 μg/ml): 11.0
- IFNγ ([3]; D281, 1 μg/ml): 5.0
- IL-2 ([3]; D281, 1 μg/ml): 2.0
- IFNγ ([3]; D281, 10 μg/ml): 6.3
- IL-2 ([3]; D281, 10 μg/ml): 2.0
- IFNγ ([3]; D462, 1 μg/ml): 7.3
- IL-2 ([3]; D462, 1 μg/ml): 1.7
- IFNγ ([3]; D462, 10 μg/ml): 6.0
- IL-2 ([3]; D462, 10 μg/ml): 2.0
- IFNγ ([3]; D547, 1 μg/ml): 3.3
- IL-2 ([3]; D547, 1 μg/ml): 4.3
- IFNγ ([3]; D547, 10 μg/ml): 5.0
- IL-2 ([3]; D547, 10 μg/ml): 12.0
- AUC [4]: 88000 ng·h/mL
- CL [4]: 15.8 mL/day/kg
- T1/2 [4]: 148 h
- Vdss [4]: 0.131 L/kg
- Cmax ([4]; average of 3 animals): 1400 ng/mL
- EC50 [5]: 24.2 ± 10 nM
- % aggregation ([6]; 40° C.): 0.0%
- % aggregation ([6]; 45.3° C.): 0.1%
- % aggregation ([6]; 49.4° C.): 0.1%
- % aggregation ([6]; 54.9° C.): 0.5%
- % aggregation ([6]; 59.1° C.): 26.2%
- % aggregation ([6]; 64° C.): 68.8%
